Key:
[1] = target: T1, EGFR (form used in the assay not stated) (human, UniProt P00533 25-645, limits assumed); experiment: ELISA, NEM conjugate, 10 nM
[2] = target: T1, EGFR (form used in the assay not stated); experiment: ELISA, NEM conjugate, 500 nM
[3] = target: T1, EGFR (form used in the assay not stated); experiment: ELISA, NEM conjugate, 100 nM

Binder | binding relative to P54AR4-83v2 parent [1] [ratio] | binding relative to P54AR4-83v2 parent [2] [ratio] | binding relative to P54AR4-83v2 parent [3] [ratio]
P54AR4-83v2 A3C, NEM conjugate (designed binder, not shown: small tags and cut ends, N-ethyl maleimide (NEM) on Cys 3) LPCPKNLVVSEVTEDSARLSWDDPWAFYESFLIQYQESEKVGEAIVLTVPGSERSYDLTGLKPGTEYTVSIYGVHNVYKDTNMRGLPLSAIFTT | 0.34 | 0.82 | 0.88
P54AR4-83v2 D15C, NEM conjugate (designed binder, not shown: small tags and cut ends, N-ethyl maleimide (NEM) on Cys 15) LPAPKNLVVSEVTECSARLSWDDPWAFYESFLIQYQESEKVGEAIVLTVPGSERSYDLTGLKPGTEYTVSIYGVHNVYKDTNMRGLPLSAIFTT | 0.98 | 0.97 | 1.09
P54AR4-83v2 E29C, NEM conjugate (designed binder, not shown: small tags and cut ends, N-ethyl maleimide (NEM) on Cys 29) LPAPKNLVVSEVTEDSARLSWDDPWAFYCSFLIQYQESEKVGEAIVLTVPGSERSYDLTGLKPGTEYTVSIYGVHNVYKDTNMRGLPLSAIFTT | 0.89 | 0.93 | 1.07
P54AR4-83v2 E14C, NEM conjugate (designed binder, not shown: small tags and cut ends, N-ethyl maleimide (NEM) on Cys 14) LPAPKNLVVSEVTCDSARLSWDDPWAFYESFLIQYQESEKVGEAIVLTVPGSERSYDLTGLKPGTEYTVSIYGVHNVYKDTNMRGLPLSAIFTT | 1.11 | 1.15 | 1.27
P54AR4-83v2 K62C, NEM conjugate (designed binder, not shown: small tags and cut ends, N-ethyl maleimide (NEM) on Cys 62) LPAPKNLVVSEVTEDSARLSWDDPWAFYESFLIQYQESEKVGEAIVLTVPGSERSYDLTGLCPGTEYTVSIYGVHNVYKDTNMRGLPLSAIFTT | 0.64 | 0.61 | 0.73
P54AR4-83v2 K79C, NEM conjugate (designed binder, not shown: small tags and cut ends, N-ethyl maleimide (NEM) on Cys 79) LPAPKNLVVSEVTEDSARLSWDDPWAFYESFLIQYQESEKVGEAIVLTVPGSERSYDLTGLKPGTEYTVSIYGVHNVYCDTNMRGLPLSAIFTT | 0.9 | 0.93 | 0.99
P54AR4-83v2 A90C, NEM conjugate (designed binder, not shown: small tags and cut ends, N-ethyl maleimide (NEM) on Cys 90) LPAPKNLVVSEVTEDSARLSWDDPWAFYESFLIQYQESEKVGEAIVLTVPGSERSYDLTGLKPGTEYTVSIYGVHNVYKDTNMRGLPLSCIFTT | 0.94 | 1.01 | 1.05
P54AR4-83v2 G73C, NEM conjugate (designed binder, not shown: small tags and cut ends, N-ethyl maleimide (NEM) on Cys 73) LPAPKNLVVSEVTEDSARLSWDDPWAFYESFLIQYQESEKVGEAIVLTVPGSERSYDLTGLKPGTEYTVSIYCVHNVYKDTNMRGLPLSAIFTT | 0 | 0.21 | 0.02
P54AR4-83v2 D80C, NEM conjugate (designed binder, not shown: small tags and cut ends, N-ethyl maleimide (NEM) on Cys 80) LPAPKNLVVSEVTEDSARLSWDDPWAFYESFLIQYQESEKVGEAIVLTVPGSERSYDLTGLKPGTEYTVSIYGVHNVYKCTNMRGLPLSAIFTT | 0.7 | 0.91 | 0.97
P54AR4-83v2 K5C, NEM conjugate (designed binder, not shown: small tags and cut ends, N-ethyl maleimide (NEM) on Cys 5, also called KSC) LPAPCNLVVSEVTEDSARLSWDDPWAFYESFLIQYQESEKVGEAIVLTVPGSERSYDLTGLKPGTEYTVSIYGVHNVYKDTNMRGLPLSAIFTT | 0.61 | 0.92 | 1.06
P54AR4-83v2 D23C, NEM conjugate (designed binder, not shown: small tags and cut ends, N-ethyl maleimide (NEM) on Cys 23) LPAPKNLVVSEVTEDSARLSWDCPWAFYESFLIQYQESEKVGEAIVLTVPGSERSYDLTGLKPGTEYTVSIYGVHNVYKDTNMRGLPLSAIFTT | 0.02 | 0.4 | 0.2
P54AR4-83v2 G64C, NEM conjugate (designed binder, not shown: small tags and cut ends, N-ethyl maleimide (NEM) on Cys 64) LPAPKNLVVSEVTEDSARLSWDDPWAFYESFLIQYQESEKVGEAIVLTVPGSERSYDLTGLKPCTEYTVSIYGVHNVYKDTNMRGLPLSAIFTT | 1.28 | 1.36 | 1.42
P54AR4-83v2 E53C, NEM conjugate (designed binder, not shown: small tags and cut ends, N-ethyl maleimide (NEM) on Cys 53) LPAPKNLVVSEVTEDSARLSWDDPWAFYESFLIQYQESEKVGEAIVLTVPGSCRSYDLTGLKPGTEYTVSIYGVHNVYKDTNMRGLPLSAIFTT | 0.91 | 0.91 | 1.02
P54AR4-83v2 E43C, NEM conjugate (designed binder, not shown: small tags and cut ends, N-ethyl maleimide (NEM) on Cys 43) LPAPKNLVVSEVTEDSARLSWDDPWAFYESFLIQYQESEKVGCAIVLTVPGSERSYDLTGLKPGTEYTVSIYGVHNVYKDTNMRGLPLSAIFTT | 0.68 | 0.92 | 1.04
P54AR4-83v2 D22C, NEM conjugate (designed binder, not shown: small tags and cut ends, N-ethyl maleimide (NEM) on Cys 22) LPAPKNLVVSEVTEDSARLSWCDPWAFYESFLIQYQESEKVGEAIVLTVPGSERSYDLTGLKPGTEYTVSIYGVHNVYKDTNMRGLPLSAIFTT | 0.84 | 0.9 | 1.02
P54AR4-83v2 A26C, NEM conjugate (designed binder, not shown: small tags and cut ends, N-ethyl maleimide (NEM) on Cys 26) LPAPKNLVVSEVTEDSARLSWDDPWCFYESFLIQYQESEKVGEAIVLTVPGSERSYDLTGLKPGTEYTVSIYGVHNVYKDTNMRGLPLSAIFTT | 0.95 | 0.95 | 1.06
P54AR4-83v2 K40C, NEM conjugate (designed binder, not shown: small tags and cut ends, N-ethyl maleimide (NEM) on Cys 40) LPAPKNLVVSEVTEDSARLSWDDPWAFYESFLIQYQESECVGEAIVLTVPGSERSYDLTGLKPGTEYTVSIYGVHNVYKDTNMRGLPLSAIFTT | 0.88 | 0.86 | 0.95
P54AR4-83v2 E39C, NEM conjugate (designed binder, not shown: small tags and cut ends, N-ethyl maleimide (NEM) on Cys 39) LPAPKNLVVSEVTEDSARLSWDDPWAFYESFLIQYQESCKVGEAIVLTVPGSERSYDLTGLKPGTEYTVSIYGVHNVYKDTNMRGLPLSAIFTT | 0.9 | 0.9 | 1
P54AR4-83v2 G60C, NEM conjugate (designed binder, not shown: small tags and cut ends, N-ethyl maleimide (NEM) on Cys 60) LPAPKNLVVSEVTEDSARLSWDDPWAFYESFLIQYQESEKVGEAIVLTVPGSERSYDLTCLKPGTEYTVSIYGVHNVYKDTNMRGLPLSAIFTT | 0.86 | 0.93 | 1.02
P54AR4-83v2 H75C, NEM conjugate (designed binder, not shown: small tags and cut ends, N-ethyl maleimide (NEM) on Cys 75) LPAPKNLVVSEVTEDSARLSWDDPWAFYESFLIQYQESEKVGEAIVLTVPGSERSYDLTGLKPGTEYTVSIYGVCNVYKDTNMRGLPLSAIFTT | 0.07 | 0.25 | 0.19
P54AR4-83v2 F31C, NEM conjugate (designed binder, not shown: small tags and cut ends, N-ethyl maleimide (NEM) on Cys 31) LPAPKNLVVSEVTEDSARLSWDDPWAFYESCLIQYQESEKVGEAIVLTVPGSERSYDLTGLKPGTEYTVSIYGVHNVYKDTNMRGLPLSAIFTT | 0.04 | 0.62 | 0.34
P54AR4-83v2 G85C, NEM conjugate (designed binder, not shown: small tags and cut ends, N-ethyl maleimide (NEM) on Cys 85) LPAPKNLVVSEVTEDSARLSWDDPWAFYESFLIQYQESEKVGEAIVLTVPGSERSYDLTGLKPGTEYTVSIYGVHNVYKDTNMRCLPLSAIFTT | 0.19 | 0.29 | 0.02
P54AR4-83v2 F27C, NEM conjugate (designed binder, not shown: small tags and cut ends, N-ethyl maleimide (NEM) on Cys 27) LPAPKNLVVSEVTEDSARLSWDDPWACYESFLIQYQESEKVGEAIVLTVPGSERSYDLTGLKPGTEYTVSIYGVHNVYKDTNMRGLPLSAIFTT | 0 | 0.23 | 0.07
P54AR4-83v2 G51C, NEM conjugate (designed binder, not shown: small tags and cut ends, N-ethyl maleimide (NEM) on Cys 51) LPAPKNLVVSEVTEDSARLSWDDPWAFYESFLIQYQESEKVGEAIVLTVPCSERSYDLTGLKPGTEYTVSIYGVHNVYKDTNMRGLPLSAIFTT | 0.88 | 0.92 | 1.03
P54AR4-83v2 E11C, NEM conjugate (designed binder, not shown: small tags and cut ends, N-ethyl maleimide (NEM) on Cys 11) LPAPKNLVVSCVTEDSARLSWDDPWAFYESFLIQYQESEKVGEAIVLTVPGSERSYDLTGLKPGTEYTVSIYGVHNVYKDTNMRGLPLSAIFTT | 0.9 | 0.95 | 1.08
P54AR4-83v2 G42C, NEM conjugate (designed binder, not shown: small tags and cut ends, N-ethyl maleimide (NEM) on Cys 42) LPAPKNLVVSEVTEDSARLSWDDPWAFYESFLIQYQESEKVCEAIVLTVPGSERSYDLTGLKPGTEYTVSIYGVHNVYKDTNMRGLPLSAIFTT | 0.84 | 0.9 | 0.99
P54AR4-83v2 I45C, NEM conjugate (designed binder, not shown: small tags and cut ends, N-ethyl maleimide (NEM) on Cys 45) LPAPKNLVVSEVTEDSARLSWDDPWAFYESFLIQYQESEKVGEACVLTVPGSERSYDLTGLKPGTEYTVSIYGVHNVYKDTNMRGLPLSAIFTT | 0.91 | 0.93 | 1.04
P54AR4-83v2 I91C, NEM conjugate (designed binder, not shown: small tags and cut ends, N-ethyl maleimide (NEM) on Cys 91) LPAPKNLVVSEVTEDSARLSWDDPWAFYESFLIQYQESEKVGEAIVLTVPGSERSYDLTGLKPGTEYTVSIYGVHNVYKDTNMRGLPLSACFTT | 0.9 | 1 | 1.01
